Measured values as given in the supplement of paper PMC10567573.

B1: WEE1 (parent)
chain: FISRTSIPNAASEEGDEDDWASNK

Variants of: B1
Assay: protein stability index of a GFP-peptide fusion (GPS, HEK-293T) (PSI 1-6); higher = more stable
Conditions: c terminus: a fixed tail appended
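Note: lentivirally expressed fusions sorted by FACS into six bins by GFP to DsRed ratio, PSI derived from sequencing read proportions per bin multiplied by bin number.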

Protein stability index of substitutions, site by site:
E13: S 3.9; T 3.55; V 3.29; W 3.54; Y 3.46
E14: A 4.43; C 4.11; D 3.88; F 3.53; G 3.33; H 3.75; I 3.64; K 4.03; L 3.56; M 3.79; N 3.78; P 3.98; Q 3.91; R 3.39; S 3.66; T 3.99; V 3.35; W 3.02; Y 4.02
G15: A 4.17; C 4.51; D 4.12; E 4.62; F 3.83; H 3.91; I 4.29; K 4.18; L 3.74; M 3.72; N 3.78; P 3.79; Q 3.78; R 3.26; S 4.42; T 4.17; V 4.46; W 3.27; Y 4.13
D16: A 3.72; C 3.74; E 3.94; F 3.63; G 3.76; H 3.23; I 4; K 3.81; L 3.83; M 3.61; N 3.8; P 3.55; Q 4.02; R 4.17; S 3.65; T 3.49; V 3.86; W 3.23; Y 3.46
E17: A 3.73; C 3.43; D 4.06; F 3.01; G 3.75; H 4.05; I 3.8; K 3.73; L 3.11; M 3.67; N 2.13; P 3.37; Q 3.79; R 3.67; S 3.72; T 3.64; V 3.35; W 3.04; Y 3.59
D18: A 3.62; C 3.28; E 4.22; F 2.5; G 3.55; H 2.23; I 3.53; K 3.76; L 3.16; M 3.03; N 3.27; P 3.6; Q 3.56; R 3.81; S 3.46; T 3.5; V 3.35; W 2.54; Y 2.5
D19: A 3.77; C 3.34; E 3.96; F 2.31; G 3.82; H 3.61; I 2.67; K 3.77; L 2.48; M 3.06; N 3.72; P 3.37; Q 3.87; R 3.5; S 3.78; T 3.58; V 3.02; W 2.37; Y 3.27
W20: A 4.79; C 4.75; D 4.92; E 4.75; F 4.81; G 4.52; H 4.44; I 4.21; K 3.42; L 4.23; M 4.44; N 4.51; P 4.57; Q 4.7; R 4.46; S 4.93; T 4.46; V 4.81; Y 4.23
A21: C 4.1; D 4.77; E 4.5; F 3.72; G 4.63; H 4.09; I 3.83; K 4.21; L 3.29; M 3.77; N 3.76; P 3.7; Q 3.62; R 4.39; S 4.1; T 4.59; V 3.81; W 3.53; Y 3.9
S22: A 4.15; C 3.87; D 4.51; E 4.18; F 3.96; G 2.83; H 3.92; I 4.24; K 4.38; L 3.52
